Earlier results on one substance are cited in paper PMC6322933.

The data set addresses ZPI (Homo sapiens) (UniProt Q9UK55).
Chain of UniProt Q9UK55 (Q9UK55 22-444): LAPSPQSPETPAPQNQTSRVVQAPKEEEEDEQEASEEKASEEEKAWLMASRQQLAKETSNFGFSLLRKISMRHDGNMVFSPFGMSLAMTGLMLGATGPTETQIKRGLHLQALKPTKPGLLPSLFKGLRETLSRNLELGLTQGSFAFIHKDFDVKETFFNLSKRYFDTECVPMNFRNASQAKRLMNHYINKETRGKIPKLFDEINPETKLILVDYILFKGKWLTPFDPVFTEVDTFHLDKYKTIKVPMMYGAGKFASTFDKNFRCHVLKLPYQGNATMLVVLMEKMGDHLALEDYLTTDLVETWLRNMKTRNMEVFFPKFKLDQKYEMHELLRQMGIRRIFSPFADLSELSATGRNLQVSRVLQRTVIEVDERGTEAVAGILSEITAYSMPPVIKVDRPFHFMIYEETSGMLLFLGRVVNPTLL

In general, Kd refers to the constant that tells how readily two partners part at equilibrium. Regarding Protein Z (from UniProt P22891), the Kd was 0.6 nM.
